Test results as given in patent publication US20200079854A1 (Johns Hopkins, published 2020).

B1: KRAS_G12V_A11V10 (scFv)
scFv: DIQMTQSPSSLSASVGDRVTITCRASQDVNTAVAWYQQKPGKAPKLLIYSASFLYSGVPSRFSGSRSGTDFTLTISSLQPEDFATYYCQQYEYYPITFGQGTKVEIKRTGGGSGGGGSGGGASEVQLVESGGGLVQPGGSLRLSCAASGFNFFSTVIHWVRQAPGKGLEWVAEIYPWSGSTYYADSVKGRFTISADTSKNTAYLQMNSLRAEDTAVYYCSRSRSSNYYFDVWGQGTLVTVSS
B2: KRAS_G12V_A11_V24 (scFv)
scFv: DIQMTQSPSSLSASVGDRVTITCRASQDVNTAVAWYQQKPGKAPKLLIYSASFLYSGVPSRFSGSRSGTDFTLTISSLQPEDFATYYCQQSSVEPWTFGQGTKVEIKRTGGGSGGGGSGGGASEVQLVESGGGLVQPGGSLRLSCAASGFNVSYYSIHWVRQAPGKGLEWVAYIYPWNDYTYYADSVKGRFTISADTSKNTAYLQMNSLRAEDTAVYYCSRGSYYSFDYWGQGTLVTVSS
B3: KRAS_G12V_A11_V3 (scFv)
scFv: DIQMTQSPSSLSASVGDRVTITCRASQDVNTAVAWYQQKPGKAPKLLIYSASFLYSGVPSRFSGSRSGTDFTLTISSLQPEDFATYYCQQSSYTPITFGQGTKVEIKRTGGGSGGGGSGGGASEVQLVESGGGLVQPGGSLRLSCAASGFNISQGGIHWVRQAPGKGLEWVAYVYPGGGQTNYADSVKGRFTISADTSKNTAYLQMNSLRAEDTAVYYCSRGYDYSAFDYWGQGTLVTVSS
B4: KRAS_G12_VA11_V9 (scFv)
scFv: DIQMTQSPSSLSASVGDRVTITCRASQDVNTAVAWYQQKPGKAPKLLIYSASFLYSGVPSRFSGSRSGTDFTLTISSLQPEDFATYYCQQYAYYPITFGQGTKVEIKRTGGGSGGGGSGGGASEVQLVESGGGLVQPGGSLRLSCAASGFNISSTGMHWVRQAPGKGLEWVAELLGGSGNTNYADSVKGRFTISADTSKNTAYLQMNSLRAEDTAVYYCSRGLQYSAMDYWGQGTLVTVSS
B5: KRAS_G12V_A11_V21 (scFv)
scFv: DIQMTQSPSSLSASVGDRVTITCRASQDVNTAVAWYQQKPGKAPKLLIYSASFLYSGVPSRFSGSRSGTDFTLTISSLQPEDFATYYCQQYTYYPITFGQGTKVEIKRTGGGSGGGGSGGGASEVQLVESGGGLVQPGGSLRLSCAASGFNLHGYLMHWVRQAPGKGLEWVAFIYPPNGYTYYADSVKGRFTISADTSKNTAYLQMNSLRAEDTAVYYCSRGVDYAYLDYWGQGTLVTVSS
B6: KRAS_G12V_A11_V23 (scFv)
scFv: DIQMTQSPSSLSASVGDRVTITCRASQDVNTAVAWYQQKPGKAPKLLIYSASFLYSGVPSRFSGSRSGTDFTLTISSLQPEDFATYYCQQYSYYPITFGQGTKVEIKRTGGGSGGGGSGGGASEVQLVESGGGLVQPGGSLRLSCAASGFNLSTHVMHWVRQAPGKGLEWVAEFYPYVGYTYYADSVKGRFTISADTSKNTAYLQMNSLRAEDTAVYYCSRGYRYQYMDVWGQGTLVTVSS
B7: IDH2_R140Q_B7_D4 (scFv)
scFv: DIQMTQSPSSLSASVGDRVTITCRASQDVNTAVAWYQQKPGKAPKLLIYSASFLYSGVPSRFSGSRSGTDFTLTISSLQPEDFATYYCQQYSYSPPTFGQGTKVEIKRTGGGSGGGGSGGGASEVQLVESGGGLVQPGGSLRLSCAASGFNISDTYIHWVRQAPGKGLEWVASISPRTGYNRYADSVKGRFTISADTSKNTAYLQMNSLRAEDTAVYYCSRAYYSYAYAMDVWGQGTLVTVSS
B8: H/R/N RAS Q61R_A1_c122 (scFv)
scFv: DIQMTQSPSSLSASVGDRVTITCRASQDVNTAVAWYQQKPGKAPKLLIYSASFLYSGVPSRFSGSRSGTDFTLTISSLQPEDFATYYCQQYWYLPTTFGQGTKVEIKRTGGGSGGGGSGGGASEVQLVESGGGLVQPGGSLRLSCAASGFNISWYDIHWVRQAPGKGLEWVADIEPSVGYTYYADSVKGRFTISADTSKNTAYLQMNSLRAEDTAVYYCSRSYPYYYFDYWGQGTLVTVSS
B9: H/R/N RAS Q61R_A1_c117 (scFv)
scFv: DIQMTQSPSSLSASVGDRVTITCRASQDVNTAVAWYQQKPGKAPKLLIYSASFLYSGVPSRFSGSRSGTDFTLTISSLQPEDFATYYCQQSVYDPITFGQGTKVEIKRTGGGSGGGGSGGGASEVQLVESGGGLVQPGGSLRLSCAASGFNISGSWIHWVRQAPGKGLEWVAWLYPDSDYTYYADSVKGRFTISADTSKNTAYLQMNSLRAEDTAVYYCSRAHTYAFDYWGQGTLVTVSS
B10: H/R/N RAS Q61R_A1_c118 (scFv)
scFv: DIQMTQSPSSLSASVGDRVTITCRASQDVNTAVAWYQQKPGKAPKLLIYSASFLYSGVPSRFSGSRSGTDFTLTISSLQPEDFATYYCQQSYTSPLTFGQGTKVEIKRTGGGSGGGGSGGGASEVQLVESGGGLVQPGGSLRLSCAASGFNIYYGVMHWVRQAPGKGLEWVAMIYPDSSWTYYADSVKGRFTISADTSKNTAYLQMNSLRAEDTAVYYCSRDQDFHYMNYYLSYALDYWGQGTLVTVSS
B11: H/R/N RAS Q61R_A1_c119 (scFv)
scFv: DIQMTQSPSSLSASVGDRVTITCRASQDVNTAVAWYQQKPGKAPKLLIYSASFLYSGVPSRFSGSRSGTDFTLTISSLQPEDFATYYCQQGQYSPFTFGQGTKVEIKRTGGGSGGGGSGGGASEVQLVESGGGLVQPGGSLRLSCAASGFNVSYEYMHWVRQAPGKGLEWVAEIYGGSDNTYYADSVKGRFTISADTSKNTAYLQMNSLRAEDTAVYYCSRPLGSYFDYWGQGTLVTVSS
B12: p53_R248Q_A2_c14 (scFv)
scFv: DIQMTQSPSSLSASVGDRVTITCRASQDVNTAVAWYQQKPGKAPKLLIYSASFLYSGVPSRFSGSRSGTDFTLTISSLQPEDFATYYCQQSLYGPFTFGQGTKVEIKRTGGGSGGGGSGGGASEVQLVESGGGLVQPGGSLRLSCAASGFNIAYEYMHWVRQAPGKGLEWVALIGPDSGYTYYADSVKGRFTISADTSKNTAYLQMNSLRAEDTAVYYCSRVWYYSTYGMDYWGQGTLVTVSS
B13: p53_R248Q_A2_c10 (scFv)
scFv: DIQMTQSPSSLSASVGDRVTITCRASQDVNTAVAWYQQKPGKAPKLLIYSASFLYSGVPSRFSGSRSGTDFTLTISSLQPEDFATYYCQQSGYAPITFGQGTKVEIKRTGGGSGGGGSGGGASEVQLVESGGGLVQPGGSLRLSCAASGFNISYYSMHWVRQAPGKGLEWVADVDPDSDYTEYADSVKGRFTISADTSKNTAYLQMNSLRAEDTAVYYCSRSWIHMFSMDYWGQGTLVTVSS
B14: p53_R248W_A2_c12 (scFv)
scFv: DIQMTQSPSSLSASVGDRVTITCRASQDVNTAVAWYQQKPGKAPKLLIYSASFLYSGVPSRFSGSRSGTDFTLTISSLQPEDFATYYCQQYSYAPITFGQGTKVEIKRTGGGSGGGGSGGGASEVQLVESGGGLVQPGGSLRLSCAASGFNIGYYTMHWVRQAPGKGLEWVAEVSPWSYSTSYADSVKGRFTISADTSKNTAYLQMNSLRAEDTAVYYCSRDHWDEAFDVWGQGTLVTVSS
B15: p53_R248W_A2_c18 (scFv)
scFv: DIQMTQSPSSLSASVGDRVTITCRASQDVNTAVAWYQQKPGKAPKLLIYSASFLYSGVPSRFSGSRSGTDFTLTISSLQPEDFATYYCQQYSYSPITFGQGTKVEIKRTGGGSGGGGSGGGASEVQLVESGGGLVQPGGSLRLSCAASGFNLFGYGMHWVRQAPGKGLEWVAEIGPYYYYTSYADSVKGRFTISADTSKNTAYLQMNSLRAEDTAVYYCSRENYDMAMDYWGQGTLVTVSS
B16: p53_R248QW_A2_c117 (scFv)
scFv: DIQMTQSPSSLSASVGDRVTITCRASQDVNTAVAWYQQKPGKAPKLLIYSASFLYSGVPSRFSGSRSGTDFTLTISSLQPEDFATYYCQQGLYYPWTFGQGTKVEIKRTGGGSGGGGSGGGASEVQLVESGGGLVQPGGSLRLSCAASGFNVSYSSIHWVRQAPGKGLEWVAEIWPDSGQTWYADSVKGRFTISADTSKNTAYLQMNSLRAEDTAVYYCSRSSYFDAMDYWGQGTLVTVSS
B17: p53_R248W_A2_c111 (scFv)
scFv: DIQMTQSPSSLSASVGDRVTITCRASQDVNTAVAWYQQKPGKAPKLLIYSASFLYSGVPSRFSGSRSGTDFTLTISSLQPEDFATYYCQQSGYQPDTFGQGTKVEIKRTGGGSGGGGSGGGASEVQLVESGGGLVQPGGSLRLSCAASGFNISWYAMHWVRQAPGKGLEWVAEIWPDSDWTYYADSVKGRFTISADTSKNTAYLQMNSLRAEDTAVYYCSRYYYSSAFDVWGQGTLVTVSS
B18: p53_R248QW_A2_c114 (scFv)
scFv: DIQMTQSPSSLSASVGDRVTITCRASQDVNTAVAWYQQKPGKAPKLLIYSASFLYSGVPSRFSGSRSGTDFTLTISSLQPEDFATYYCQQYLYQPWTFGQGTKVEIKRTGGGSGGGGSGGGASEVQLVESGGGLVQPGGSLRLSCAASGFNIDYYGMHWVRQAPGKGLEWVASLYGGSDSTDYADSVKGRFTISADTSKNTAYLQMNSLRAEDTAVYYCSRQYSAYFDYWGQGTLVTVSS

Biological target: KRAS wt(7-16) peptide … with HLA-A11 and b2M on peptide-pulsed Hs611.T cells (human)
Test: flow cytometry, phage-displayed scFv on peptide-pulsed Hs611.T cells (FIG. 11)
Experimental: (§1) Cells were stained with 10 μL of precipitated phage per 100 μL of cells, washed and stained with rabbit anti-M13 antibody, then washed and stained with anti-Rabbit-PE antibody. Cells were stained with a live/dead Near-IR dye, washed, and analyzed by an LSRII flow cytometer.
(§2) The pulsed cells were pelleted, washed once in cold stain buffer (PBS containing 0.5% BSA, 2 mM EDTA, and 0.1% sodium azide), and resuspended in 100 μL of stain buffer. Phage staining was performed on ice with 10 uL (approximately 1×10⁹) phage for 1 hour in 100 uL total volume, followed by one 4 mL wash in cold stain buffer. Cells were then stained with 1 uL of rabbit anti-M13 antibody (Pierce, Rockford, Ill.) in 100 uL total volume on ice for 1 hour and washed once with 4 mL of cold stain buffer. Cells were stained with anti-rabbit-PE (Biolegend) on ice for 1 hour in 100 uL total volume, followed by incubation with LIVE/DEAD Fixable Near-IR Dead Cell Stain (Thermo Fisher) for 10 min at room temperature per manufacturer's instructions. Cells were washed once in 4 mL of stain buffer followed by resuspension in 300 uL of stain buffer before analysis. Stained cells were analyzed using an LSRII flow cytometer (Becton Dickinson, Mansfield, Mass.).

Binding result, no binding:
B1
B2
B3
B4
B5
B6

Biological target: T1, IDH2 wt(134-143) peptide … with HLA-B7 and b2M on cells (human)
T1 construct: peptide-pulsed RPMI-6666 cells in flow cytometry
Test: flow cytometry, phage-displayed scFv on peptide-pulsed RPMI-6666 cells (FIG. 3)
Experimental: as §1, §2

Binding result, no binding:
B7

Biological target: H/K/N RAS wt(55-64) peptide … with HLA-A1 and b2M on peptide-pulsed SigM5 cells (human)
Test: flow cytometry, phage-displayed scFv on peptide-pulsed SigM5 cells (FIG. 14)
Experimental: as §1, §2

Binding result, no binding:
B8
B9
B10
B11

Biological target: p53 wt(245-254) peptide … with HLA-A2 and b2M on peptide-pulsed T2 cells (human)
Test: flow cytometry, phage-displayed scFv on peptide-pulsed T2 cells (FIG. 4)
Experimental: as §1, §2

Binding result, no binding:
B12
B13
B14
B15
B16
B17
B18

Biological target: control 1 peptide (…, artificial sequence) HLA-B7 biotinylated monomer (biotinylated (site not given))
Test: phage ELISA on monomer-coated streptavidin plate (FIG. 1)

Binding result, no binding:
B7

Biological target: control 3 peptide (…, a different peptide from wt IDH2) HLA-B7 biotinylated monomer (biotinylated (site not given))
Test: as above

Binding result, no binding:
B7

Biological target: T2, IDH2 wt peptide (…) HLA-B7 biotinylated monomer (biotinylated (site not given))
T2 construct: also called wt version of the peptide of interest in complex with the same HLA allele
Test: as above

Binding result, no binding:
B7
